Measurements from publication PMC12101283, “Validation and Optimization of PURE Ribosome Display for Screening Synthetic Nanobody Libraries” (Antibodies, 2025).

How the values were obtained:
[1] = molecular target: T1, human fatty acid binding protein 4 (Homo sapiens, UniProt P15090); assay: ITC; MicroCal PEAQ ITC, 25 °C, PBS, one binding site model; 50 µM F4_B6 in cell with 550 µM hFABP4 in syringe; conditions: both partners purified
T1 construct: The methods describe only the plasmid His-SUMO-hFABP4-(GGGGS)4-SBP; also called hFABP4; FABP4; source: E. coli BL21 (DE3), purified (Ni-NTA, SEC); not shown: His, N-terminal, cleaved; SUMO, N-terminal, cleaved

[2] = molecular target: T1, human fatty acid binding protein 4; assay: pull-down; His-tagged nanobody captured from E. coli supernatant on Ni-NTA agarose and washed; 100 µL target protein solution (approximately 0.2 mg/mL) added; washes with PBS (10 mM imidazole in the 3rd); elution with 200 mM imidazole; SDS-PAGE; conditions: both partners purified

T1 sequence (P15090 whole entry): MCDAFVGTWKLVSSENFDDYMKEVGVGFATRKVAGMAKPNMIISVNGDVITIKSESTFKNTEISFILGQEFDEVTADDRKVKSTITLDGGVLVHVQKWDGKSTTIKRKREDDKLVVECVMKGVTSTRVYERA

| Kd [1] | binding result [2] | Binder |
| --- | --- | --- |
| ~295 nM | – | F4_B6 (VHH, source: E. coli BL21; supernatant of lysed cells (ELISA; captured on Ni-NTA for the pull-down); purified (Ni-NTA, SEC) for SEC and ITC) VHH: QVQLVESGGGLVQAGGSLRLSCAASGVDMHNFEMGWYRQAPGKEREFVAAIDDVQPLTYYADSVKGRFTISRDNAKNTVYLQMNSLKPEDTAVYYCAAVKGDFWSESNYWGQGTQVTVSS |
| – | binds | F4_C9 (VHH, source: E. coli BL21; supernatant of lysed cells (ELISA; captured on Ni-NTA for the pull-down)) VHH: QVQLVESGGGLVQAGGSLRLSCAASGPPFSFVFMGWYRQAPGKEREFVAAIFDFTDETYYADSVKGRFTISRDNAKNTVYLHMNSLKPEDTAVYYCAAARGLNYWNNVYWGQGTQVTVSS |
